Like-named read-outs stand apart in the source and are kept apart here.

The source of these data is patent publication US20240409658A1 (Seagen, published 2024).

In assay [1] the target is T1, human CD228 on the cell surface (RPMI-7951 cells stably expressing human CD228; A375 cells) (human, UniProt P08582 20-709).
T1 construct: whole, on cells; also called p97; melanotransferrin
T1 sequence (looked up): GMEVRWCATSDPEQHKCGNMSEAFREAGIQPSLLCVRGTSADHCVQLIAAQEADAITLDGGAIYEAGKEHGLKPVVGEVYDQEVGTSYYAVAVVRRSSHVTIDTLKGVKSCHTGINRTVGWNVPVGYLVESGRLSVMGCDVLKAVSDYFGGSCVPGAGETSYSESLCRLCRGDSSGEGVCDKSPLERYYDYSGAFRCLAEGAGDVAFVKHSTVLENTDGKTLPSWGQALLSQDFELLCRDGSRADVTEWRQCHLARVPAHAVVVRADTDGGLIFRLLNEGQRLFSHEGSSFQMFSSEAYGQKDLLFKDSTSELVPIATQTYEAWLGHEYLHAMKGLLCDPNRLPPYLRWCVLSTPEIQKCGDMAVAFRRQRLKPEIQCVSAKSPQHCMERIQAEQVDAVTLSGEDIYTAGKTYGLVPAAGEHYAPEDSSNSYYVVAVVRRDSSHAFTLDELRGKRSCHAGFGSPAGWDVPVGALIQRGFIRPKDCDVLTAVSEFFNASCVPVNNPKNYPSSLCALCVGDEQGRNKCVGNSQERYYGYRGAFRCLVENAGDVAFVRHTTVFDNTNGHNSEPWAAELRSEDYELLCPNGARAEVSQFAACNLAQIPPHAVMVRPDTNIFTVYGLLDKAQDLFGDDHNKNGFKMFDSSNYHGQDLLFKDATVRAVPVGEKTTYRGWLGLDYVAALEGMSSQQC
Kind of assay: competition flow cytometry, RPMI-7951 cells stably expressing human CD228; competitor 5 nM AF647-labeled mL49; unlabeled antibody 0.06-1000 nM. The procedure:
(§1) Binding curves for each resulting antibody was determined by a competition binding assay. Briefly, 1×10⁵ RPMI-7951 cells stably expressing human CD228 were aliquoted per well of a 96-well v-bottom plates on ice. […] Cells were pelleted and washed 3 times with PBS/BSA. The cells were pelleted and resuspended in 125 μL of PBS/BSA. Fluorescence was analyzed by flow cytometry, using percent of saturated fluorescent signal to determine percent labeled murine CD228 mAb bound.
Background: In flow cytometry, cells or beads pass a laser one at a time.

Assay [2] deals with T1, human CD228 on the cell surface …. The description is as above. As for the experimental part: as §1
This is another data set of the same source.

Assay [3] shares this target. The description is as above. As for the experimental part:
as §1
The source holds these as a separate data set.

Assay [4] shares this target. The description is as above. The procedure: as §1
This is another data set of the same source.

The target is the same in assay [5]. Described as above. As for the experimental part: as §1
This is another data set of the same source.

Assay [6] has the same target. Described as above. As for the experimental part: as §1
This is another data set of the same source.

Assay [7] concerns the target T2, human CD228 (R&D Systems Custom02; Lot DCWR021505A) (human, UniProt P08582 20-709, limits assumed).
T2 sequence (looked up): T1 sequence (looked up)
The assay is described as follows: ELISA on plate-coated human CD228, pH 5.6. As for the experimental part: (§2) The ability of various anti-CD228 ADCs to bind to CD228 was evaluated at pH values ranging from 4 to 7.5 using a standard ELISA protocol. Briefly, 100 ng of human CD228 (R&D Systems Custom02; Lot DCWR021505A) or BSA (Sigma; Catalog No. A7030-100G) were diluted in PBS and added to each well overnight at 4° C. Plates were then washed three times with PBS-T (EMD Millipore; Catalog No. 5246531EA). After washing, plates were blocked with 3% (w/v) BSA in PBS-T for 1 hour at room temperature. Excess blocking buffer was then removed and the primary antibody was added in 3-fold dilutions in diluent buffer (0.15M citrate-phosphate buffer pH 4.0-7.5) starting at an antibody concentration of 60 nM. After incubating for 1 hour at room temperature, the plates were washed 3 times and then incubated with secondary antibody (Goat anti-human IgG Fc-specific HRP-conjugated, Jackson ImmunoResearch code #109-035-098) in PBS-T with 1% BSA. After incubating for 30 minutes at room temperature, plates were washed 3 times. 100 μl TMB substrate (Life Technologies; Cat #002023) was then added to each well. After incubating 10 minutes at room temperature, 100 μl H2SO4 was added to each well to stop the reaction, plates were covered with clear plate seal and read on an Envision at […]. pH-dependent binding for hL49, cL235, CD228Ab1, CD228Ab2 and CD228Ab3, CD228Ab4 are shown in FIG. 34A-34F.
In general terms: ELISA stands for enzyme-linked immunosorbent assay.

Assay [8] has as its target T2, human CD228 (R&D Systems Custom02; Lot …). Kind of assay: ELISA on plate-coated human CD228, pH 5.9. The procedure:
as §2

The target is the same in assay [9]. Kind of assay: ELISA on plate-coated human CD228, pH 6.3. As for the experimental part:
as §2

Assay [10] shares this target. Kind of assay: ELISA on plate-coated human CD228, pH 7.1. As for the experimental part:
as §2

The target is the same in assay [11]. Kind of assay: ELISA on plate-coated human CD228, pH 7.4. The procedure: as §2
For assay [12] the target is unchanged. The assay is described as follows: ELISA on plate-coated human CD228, pH 7.5. The procedure: as §2
The target is the same in assay [13]. The assay is described as follows: ELISA on plate-coated human CD228, pH 6.66. The procedure:
as §2

For assay [14], the target named is T1, human CD228 on the cell surface …. The assay is described as follows: saturation binding by flow cytometry on RPMI-7951 cells stably expressing human CD228; apparent KD. As for the experimental part: (§3) The KD for each resulting antibody was then determined by a saturation binding assay. Briefly, 1×10⁵ RPMI-7951 cells stably expressing human CD228 were aliquoted per well of a 96-well v-bottom plates. Each CD228 antibody was added in concentrations ranging from 0.05 pM to 340 nM and incubated on ice for 60 minutes. Cells were pelleted and washed 3× with PBS/BSA followed by addition of 10 ug/ml of a PE labeled anti-human IgG goat secondary antibody and incubated on ice for an additional 60 minutes. Cells were pelleted and washed 3× with PBS/BSA and resuspended in 125 μL of PBS/BSA. Fluorescence was analyzed by flow cytometry, using percent of saturated fluorescent signal to determine percent bound and to subsequently calculate apparent KD. The binding curves for recombinant human anti-CD228 antibodies are shown in FIG. 13 and the KD for cL49ec (chimeric LA9 with an S239C mutation in the […] constant region), hL49 HALA G1, hL49 HALB G1, and hL49 HALC G1 are shown in Table 8. The antibody called “HALC,” “hL49,” or “hL49-HALC” which comprises heavy chain “HA” and the light chain “LC” was selected for use in all other experiments.

The target is the same in assay [15]. Kind of assay: saturation binding by flow cytometry, RPMI-7951 cells stably expressing human CD228; PE anti-human IgG secondary; row 'ug/mL' of the drawn table headed 'kD'. As for the experimental part: as §3

B1: mouse antibody L49 (mL49), AlexaFluor-647 labeled parental murine CD228 mAb (antibody, mouse IgG1, V domains shown)
VH: EVQLQESGPSLVKPSQTLSLTCSVTGDSITSGYWNWIRKFPGNKLEYMGYISDSGITYYNPSLKSRISITRDTSKNQYYLQLNFVTAEDTATYNCARRTLATYYAMDYWGQGTSVTVSS
VL: DFVMTQTPLSLPVSLGDQASISCRASQSLVHSNGNTYLHWYLQKPGQSPKLLIYRVSNRFSGVPDRFSGSGSGTDFTLKISRVEAEDLGVYFCSQSTHVPPTFGGGTKLEIK
notes: also called Mu L49
In the case of B1, the “IC50 (read off the curve)” value in assay [1], in assay [2], in [3], in assay [4], in assay [5] and in assay [6] was 10 to 20 nM each time.

B2: hL49 HALC G1 (antibody, human IgG1, kappa, V domains shown)
VH: QVQLQESGPGLVKPSETLSLTCTVSGDSITSGYWNWIRQPPGKGLEYIGYISDSGITYYNPSLKSRVTISRDTSKNQYSLKLSSVTAADTAVYYCARRTLATYYAMDYWGQGTLVTVSS
VL: DFVMTQSPLSLPVTLGQPASISCRASQSLVHSDGNTYLHWYQQRPGQSPRLLIYRVSNRFSGVPDRFSGSGSGTDFTLKISRVEAEDVGVYYCSQSTHVPPTFGQGTKLEIKT
notes: Humanized L49, IgG1 kappa
As usually defined, the EC50 is the midpoint of the concentration-response curve. Low values mean greater potency, high ones weaker potency. With B2, the 50% effective concentration (EC50) in assay [7] is 21.8 nM; in [8], 5.31 nM; in [9], 2.96 nM; in assay [10] it was 1.1 nM; in assay [11], 0.856 nM; in [12], 1.18 nM. Besides, the EC50 in [13] worked out at 1.54 nM. Further, the Kd amounted to 4 nM in [14] and 0.6 µg/mL in assay [15].
